From article PMC3229523, “Identification of Lactoferricin B Intracellular Targets Using an Escherichia coli Proteome Chip” (PLoS ONE, 2011)
Ends that are not written are not given here. * marks the point of attachment. Biotin = O=C1N[C@H]2[C@H](CS[C@H]2CCCCC(=O)*)N1

Assays:
Test in all cases: peptide or protein array; E. coli proteome chip: purified His-tagged proteins printed in duplicate on Fullmoon slides, blocked with 1% BSA; 10 nM N-terminal biotinylated LfcinB with 1% BSA, room temperature, 1 h; detected with DyLight 649-labeled streptavidin, ratio to DyLight 549-labeled anti-His antibody; ProCAT normalisation, local cut-off; triplicate chips
Settings in all cases: both partners purified
[1] = molecular target: T1, YrfI (E. coli K-12, UniProt P0A6Y5 1-292)
T1 construct: YrfI, E. coli K-12
T1 sequence (looked up): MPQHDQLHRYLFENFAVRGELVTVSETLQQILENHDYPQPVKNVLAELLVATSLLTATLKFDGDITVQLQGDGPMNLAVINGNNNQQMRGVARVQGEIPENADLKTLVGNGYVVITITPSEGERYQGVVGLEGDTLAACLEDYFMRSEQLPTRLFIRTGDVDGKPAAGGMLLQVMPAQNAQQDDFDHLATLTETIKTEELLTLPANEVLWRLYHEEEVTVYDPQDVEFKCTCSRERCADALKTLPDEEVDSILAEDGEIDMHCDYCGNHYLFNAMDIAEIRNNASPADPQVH

[2] = molecular target: T2, RhaR (E. coli K-12, UniProt P09378 1-282)
T2 construct: RhaR, E. coli K-12
T2 sequence (looked up): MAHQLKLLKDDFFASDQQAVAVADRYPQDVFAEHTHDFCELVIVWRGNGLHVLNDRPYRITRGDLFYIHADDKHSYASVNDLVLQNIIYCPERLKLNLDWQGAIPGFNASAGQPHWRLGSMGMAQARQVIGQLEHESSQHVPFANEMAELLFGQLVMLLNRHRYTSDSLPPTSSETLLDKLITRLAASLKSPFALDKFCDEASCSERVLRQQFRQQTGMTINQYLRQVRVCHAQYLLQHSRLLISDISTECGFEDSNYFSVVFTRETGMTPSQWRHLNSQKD

[3] = molecular target: T3, ThiF (E. coli K-12, UniProt P30138 1-251)
T3 construct: ThiF, E. coli K-12
T3 sequence (looked up): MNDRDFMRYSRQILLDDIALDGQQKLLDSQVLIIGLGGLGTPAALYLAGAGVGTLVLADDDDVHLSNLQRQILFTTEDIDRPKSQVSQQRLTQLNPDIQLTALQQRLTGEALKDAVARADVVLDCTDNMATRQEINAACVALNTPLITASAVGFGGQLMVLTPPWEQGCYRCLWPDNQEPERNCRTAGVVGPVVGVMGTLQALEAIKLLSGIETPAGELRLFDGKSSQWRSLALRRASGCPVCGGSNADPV

[4] = molecular target: T4, YgiG (E. coli K-12, UniProt P0AC16 1-122)
T4 construct: YgiG, E. coli K-12
T4 sequence (looked up): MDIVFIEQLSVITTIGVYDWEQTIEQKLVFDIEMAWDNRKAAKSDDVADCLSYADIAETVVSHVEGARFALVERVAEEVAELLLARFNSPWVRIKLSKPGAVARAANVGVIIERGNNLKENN

[5] = molecular target: T5, YciW (E. coli K-12, UniProt P76035 1-375)
T5 construct: YciW, E. coli K-12
T5 sequence (looked up): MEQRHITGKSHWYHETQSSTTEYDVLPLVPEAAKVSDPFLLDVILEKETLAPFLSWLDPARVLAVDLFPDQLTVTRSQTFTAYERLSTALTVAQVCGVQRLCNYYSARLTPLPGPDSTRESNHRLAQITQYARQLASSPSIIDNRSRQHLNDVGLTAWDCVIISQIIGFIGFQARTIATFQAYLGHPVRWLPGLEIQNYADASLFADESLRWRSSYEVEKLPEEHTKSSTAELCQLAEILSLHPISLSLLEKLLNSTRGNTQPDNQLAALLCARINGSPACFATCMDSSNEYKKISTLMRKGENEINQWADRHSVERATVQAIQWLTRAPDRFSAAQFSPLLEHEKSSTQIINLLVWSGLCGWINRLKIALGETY

[6] = molecular target: T6, CaiA (E. coli K-12, UniProt P60584 1-380)
T6 construct: CaiA, E. coli K-12
T6 sequence (looked up): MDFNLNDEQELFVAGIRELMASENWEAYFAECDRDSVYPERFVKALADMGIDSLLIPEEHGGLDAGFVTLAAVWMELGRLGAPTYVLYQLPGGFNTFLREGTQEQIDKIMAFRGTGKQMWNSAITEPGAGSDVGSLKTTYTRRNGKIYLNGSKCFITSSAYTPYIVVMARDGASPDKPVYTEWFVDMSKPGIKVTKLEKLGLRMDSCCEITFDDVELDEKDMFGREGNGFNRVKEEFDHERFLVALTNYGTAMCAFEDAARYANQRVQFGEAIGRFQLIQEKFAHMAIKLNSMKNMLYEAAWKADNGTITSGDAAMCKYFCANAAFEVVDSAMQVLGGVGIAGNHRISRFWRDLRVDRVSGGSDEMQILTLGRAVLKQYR

Measured: binding result

B1: N-terminal biotinylated Lactoferricin B (peptide, UniProt P24627 36-60, looked up)
peptide: Biotin-FKCRRWQWRMKKLGAPSITCVRRAF
modifications: ends and bridges not checked
notes: lactoferricin B (LfcinB), cationic antimicrobial peptide of 25 amino acids; also called biotinylated LfcinB; biotin-labeled LfcinB; source: bought: Kelowna Inc
binds: [1] | [2] | [3] | [4] | [5] | [6]
